In the series the target is T1, MORF9 (UniProt Q9LPZ1 75-196, C85S;C187S).
T1 sequence: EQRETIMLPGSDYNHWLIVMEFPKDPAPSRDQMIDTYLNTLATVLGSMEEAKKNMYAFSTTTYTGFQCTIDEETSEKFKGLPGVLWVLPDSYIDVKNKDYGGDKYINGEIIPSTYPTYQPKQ
The series is described as follows: EMSA; MORF9 alone, up to highest concentration; REMSA: 1 nM RNA, 2x buffer is 85 mM Tris, 165 mM HEPES, 200 mM NaCl, 12.5 mM DTT, 0.25 mM EDTA, 1.25 mg/mL heparin, 0.1 mg/mL BSA; 30 min at ambient temperature; 5% polyacrylamide gel; pH not stated. To be noted: protein: recombinant; tags: N-terminal His-TEV tag cleaved off; label: 5'-Cy5; single strand. A general note: A gel shift assay detects complexes by their altered migration in electrophoresis.

For the molecule AUGUAUUACACGUGCAAAAUCUGAGA (ssRNA) [rpoA_REMSA (rpoA-78691)], the binding result is on record as “no binding”.

As for CAGCAACAGAAGCCCAAGCUCAUGGA (ssRNA) [clpP1_REMSA (clpP1-69942)], the binding result is on record as “no binding”.

These data come from publication PMC8110955, “A synthetic RNA editing factor edits its target site in chloroplasts and bacteria”.
